According to US20200062844A1 (Regeneron, published 2020):
Substitutions are numbered along the chain they refer to.

T1: human FcεR1α expressed on cells (human, UniProt P12319 26-257)
T1 sequence (looked up): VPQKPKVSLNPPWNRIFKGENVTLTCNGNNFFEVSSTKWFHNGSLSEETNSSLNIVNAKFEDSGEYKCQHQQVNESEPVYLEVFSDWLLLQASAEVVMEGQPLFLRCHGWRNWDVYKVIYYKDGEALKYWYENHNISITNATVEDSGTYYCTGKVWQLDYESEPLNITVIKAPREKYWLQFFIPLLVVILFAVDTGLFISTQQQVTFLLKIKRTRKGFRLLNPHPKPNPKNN

T2: hFcεR1α.MMH (human)
T2 construct: also called ectodomain of human FcεR1α with C-term myc-myc-6×His tag
T2 chain: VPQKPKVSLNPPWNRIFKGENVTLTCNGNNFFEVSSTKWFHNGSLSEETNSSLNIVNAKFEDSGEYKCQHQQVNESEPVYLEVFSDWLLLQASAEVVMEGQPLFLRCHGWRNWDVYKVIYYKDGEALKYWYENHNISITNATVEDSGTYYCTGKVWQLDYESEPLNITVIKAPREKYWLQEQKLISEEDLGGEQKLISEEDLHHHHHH

T3: mfFcεR1α.MMH (cynomolgus (Macaca fascicularis))
T3 construct: also called mfFceR1a.MMH; ectodomain of cynomolgus FcεR1α with C-term myc-myc-6×His tag
T3 chain: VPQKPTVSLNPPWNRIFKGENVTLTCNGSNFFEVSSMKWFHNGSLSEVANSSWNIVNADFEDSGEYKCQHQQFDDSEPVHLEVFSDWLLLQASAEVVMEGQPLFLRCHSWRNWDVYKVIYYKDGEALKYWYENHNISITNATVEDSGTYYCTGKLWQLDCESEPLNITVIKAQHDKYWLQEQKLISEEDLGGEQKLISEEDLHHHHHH

B1: bsAb24919D (bispecific antibody, human IgG4 S228P, kappa)
heavy 1: QVQLQESGPGLVKPSETLSLTCTVSGDSISDYYWIWIRQPPGKGLEWIGYIYYSGSTNYNPSLKSRVTISVATSKNQFSLKLRSVTAADTAMYYCARRNNWNHVRAFDIWGQGTMVTVSSASTKGPSVFPLAPCSRSTSESTAALGCLVKDYFPEPVTVSWNSGALTSGVHTFPAVLQSSGLYSLSSVVTVPSSSLGTKTYTCNVDHKPSNTKVDKRVESKYGPPCPPCPAPPVAGPSVFLFPPKPKDTLMISRTPEVTCVVVDVSQEDPEVQFNWYVDGVEVHNAKTKPREEQFNSTYRVVSVLTVLHQDWLNGKEYKCKVSNKGLPSSIEKTISKAKGQPREPQVYTLPPSQEEMTKNQVSLTCLVKGFYPSDIAVEWESNGQPENNYKTTPPVLDSDGSFFLYSRLTVDKSRWQEGNVFSCSVMHEALHNHYTQKSLSLSLGK
heavy 2: EVQLVESGGGLVQPGRSLRLSCAASGFTFDDYSMHWVRQAPGKGLEWVSGISWNSGSIGYADSVKGRFTISRDNAKNSLYLQMNSLRAEDTALYYCAKYGSGYGKFYYYGMDVWGQGTTVTVSSASTKGPSVFPLAPCSRSTSESTAALGCLVKDYFPEPVTVSWNSGALTSGVHTFPAVLQSSGLYSLSSVVTVPSSSLGTKTYTCNVDHKPSNTKVDKRVESKYGPPCPPCPAPPVAGPSVFLFPPKPKDTLMISRTPEVTCVVVDVSQEDPEVQFNWYVDGVEVHNAKTKPREEQFNSTYRVVSVLTVLHQDWLNGKEYKCKVSNKGLPSSIEKTISKAKGQPREPQVYTLPPSQEEMTKNQVSLTCLVKGFYPSDIAVEWESNGQPENNYKTTPPVLDSDGSFFLYSRLTVDKSRWQEGNVFSCSVMHEALHNRFTQKSLSLSPGK
light: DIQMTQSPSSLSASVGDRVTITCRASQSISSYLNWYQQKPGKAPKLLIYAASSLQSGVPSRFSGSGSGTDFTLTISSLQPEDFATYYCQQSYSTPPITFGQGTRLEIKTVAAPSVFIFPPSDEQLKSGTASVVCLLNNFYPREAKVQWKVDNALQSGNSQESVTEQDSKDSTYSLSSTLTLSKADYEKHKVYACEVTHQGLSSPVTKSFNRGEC
notes: IgG4 Fc domain; two distinct heavy chains with a common light chain; also called anti-FcεR1α×CD3 bispecific antibody; FcεR1α × hCD3
B2: bsAb24920D (bispecific antibody, human IgG4 S228P, kappa)
heavy 1: B1 heavy 1 with S30N, I35S, I37L, A72D, R83S, M92V, A96T, H103Y
heavy 2: B1 heavy 2
light: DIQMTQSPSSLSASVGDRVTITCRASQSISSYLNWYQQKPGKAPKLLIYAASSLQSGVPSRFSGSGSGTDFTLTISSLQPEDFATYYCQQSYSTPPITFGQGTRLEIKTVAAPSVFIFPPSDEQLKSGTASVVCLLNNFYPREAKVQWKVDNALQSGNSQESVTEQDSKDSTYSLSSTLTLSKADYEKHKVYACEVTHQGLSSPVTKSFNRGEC
notes: as for B1

Tests used:
[1] = target: T1, human FcεR1α expressed on cells; assay: cell-based or functional assay
[2] = target: T4, human CD3 expressed in Jurkat cells (human, UniProt P07766 23-207; P04234 22-171; P20963 22-164; P09693 23-182); assay: flow cytometry, 70 nM antibody on Jurkat/NFAT-luc cells, No IgE
T4 construct: Endogenous CD3 complex of Jurkat T cells; also called hCD3; Jurkat/NFAT-luc cells
T4 sequence (P07766 23-207 limits assumed, chain 1 of 4): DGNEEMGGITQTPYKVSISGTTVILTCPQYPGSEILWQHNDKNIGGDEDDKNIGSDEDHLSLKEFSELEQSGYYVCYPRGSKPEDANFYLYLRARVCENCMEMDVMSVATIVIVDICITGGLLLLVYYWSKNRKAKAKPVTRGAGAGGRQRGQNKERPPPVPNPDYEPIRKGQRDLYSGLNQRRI
T4 sequence (P04234 22-171 limits assumed, chain 2 of 4): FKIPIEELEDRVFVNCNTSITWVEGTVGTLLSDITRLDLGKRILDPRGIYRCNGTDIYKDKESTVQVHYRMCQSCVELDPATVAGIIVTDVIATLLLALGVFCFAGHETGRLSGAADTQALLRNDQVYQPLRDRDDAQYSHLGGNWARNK
T4 sequence (P20963 22-164 limits assumed, chain 3 of 4): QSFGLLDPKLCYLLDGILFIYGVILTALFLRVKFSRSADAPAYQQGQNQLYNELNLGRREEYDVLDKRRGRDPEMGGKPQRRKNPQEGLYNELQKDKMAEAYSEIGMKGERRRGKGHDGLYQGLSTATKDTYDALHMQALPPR
T4 sequence (P09693 23-182 limits assumed, chain 4 of 4): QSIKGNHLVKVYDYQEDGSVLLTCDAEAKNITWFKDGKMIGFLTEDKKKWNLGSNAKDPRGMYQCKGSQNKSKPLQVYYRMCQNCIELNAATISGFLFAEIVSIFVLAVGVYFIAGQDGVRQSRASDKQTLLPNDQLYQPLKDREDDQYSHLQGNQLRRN
Method: (§1) For flow cytometry analysis, HEK293, HEK293/hFcεR1α/hFcεR1β/hFcεR1γ and HEK293/mf FcεR1α/hFcεR1β/hFcεR1γ cells were collected after dissociation using Enzyme Free Dissociation Buffer (Millipore Cat# S-004), and the cells were pre-incubated with or without 70 nM human IgE, for 30 minutes on ice in FACS buffer (PBS, without Ca⁺⁺ and Mg⁺⁺, (Irvine Scientific, Cat#9240) containing 2% FBS). Jurkat/NFAT-luc cells were also collected. The antibodies at the concentration of 70 nM were then added to 1×10⁶ cells/well of each cell type at 4° C. for 30 minutes. […] Cells were fixed using BD CytoFix™ (Becton Dickinson, Cat. #554655) and analyzed on Accuri™ C6 (BD) or CytoFLEX Flow cytometer (Beckman Coulter). Unstained and secondary antibody alone controls were also tested for all cell lines and a sample was evaluated for viability using the Far Red Fluo viability dye (Thermo Fisher, Cat#L10120) according to the manufacturer's protocol. The results were analyzed using FlowJo software (version 10.0.8, FlowJo) to determine the geometric means of fluorescence for viable cells and the binding ratio was calculated with the mean fluorescence intensity (MFI) of the experimental condition normalized by the MFI of the unstained respective cells.

[3] = target: T4, human CD3 expressed in Jurkat cells; assay: cell-based or functional assay
hFcεR1α.MMH [4] = target: T2, hFcεR1α.MMH; assay: SPR (Biacore 8k), antibody captured on anti-human Fc, hFcεR1α.MMH injected, 37°C
Method: (§2) Equilibrium dissociation constants (KD) for human or cynomolgus FcεR1α ectodomain binding to purified anti-FcεR1α monoclonal antibodies (mAbs) and CD3×FcεR1α bispecific antibodies (bsAbs) were determined using a real-time surface plasmon resonance biosensor (SPR-Biacore), Biacore 8k. All binding studies were performed in 10 mM HEPES, 150 mM NaCl, 3 mM EDTA, and 0.05% v/v surfactant Tween-20, pH 7.4 (HBS-ET) running buffer at 25° C. and 37° C.
(§3) The Biacore CM4 sensor surface was first derivatized by amine coupling with a monoclonal mouse anti-human Fc antibody to capture approximately 500-900 RUs anti-FcεR1α monoclonal antibodies or anti-CD3×FcεR1α bispecific monoclonal antibodies. 1 RU (response unit) represents 1 pg of protein per mm², as defined by the manufacturer. The ectodomain of human and cynomolgus FcεR1α reagents were expressed with a C-term myc-myc-6×His tag-hFcεR1α.MMH (SEQ ID NO: 57) and mfFcεR1α.MMH (SEQ ID NO: 58). Different concentrations of FcεR1α reagents were prepared in HBS-ET running buffer (600 nM-7.4 nM; serially diluted by 3-fold) and injected over anti-human Fc captured anti-FcεR1α monoclonal antibodies or anti-CD3×FcεR1α bispecific monoclonal antibodies surfaces for 1 minute at a flow rate of 30 μL/minute. The dissociation of bound FcεR1α reagents was monitored for 4 minutes in HBS-ET running buffer. Association (kₐ) and dissociation (kd) rate constants were determined by fitting the real-time binding sensorgrams to a 1:1 binding model with mass transport limitation using Biacore 8k evaluation software. Binding dissociation equilibrium constants (KD) and dissociative half-lives (t½) were calculated from the kinetic rate constants as: […]

[5] = target: T5, monkey (cynomolgus) FcεR1α expressed on cells (cynomolgus); assay: flow cytometry, 70 nM antibody on HEK293/mfFcεR1α/hFcεR1β/hFcεR1γ cells, No IgE
T5 construct: range 4-260; On HEK293 cells, co-expressed with human FcεR1β and FcεR1γ; also called mfFcεR1α; HEK293/mfFcεR1α/hFcεR1β/hFcεR1γ cells
Method: as §1

[6] = target: T1, human FcεR1α expressed on cells; assay: flow cytometry, 70 nM antibody on HEK293/hFcεR1α/hFcεR1β/hFcεR1γ cells, No IgE
Method: as §1

[7] = target: T5, monkey (cynomolgus) FcεR1α expressed on …; assay: flow cytometry, 70 nM antibody on HEK293/mfFcεR1α/hFcεR1β/hFcεR1γ cells pre-incubated with 70 nM human IgE
Method: as §1

[8] = target: T1, human FcεR1α expressed on cells; assay: flow cytometry, 70 nM antibody on HEK293/hFcεR1α/hFcεR1β/hFcεR1γ cells pre-incubated with 70 nM human IgE
Method: as §1

mfFcεR1α.MMH [9] = target: T3, mfFcεR1α.MMH; assay: SPR (Biacore 8k), antibody captured on anti-human Fc, mfFcεR1α.MMH injected, 25°C
Method: as §2, §3

[10] = target: T1, human FcεR1α expressed on cells; assay: cell-based or functional assay; remark: listed apart in the source
hFcεR1α.MMH [11] = target: T2, hFcεR1α.MMH; assay: SPR (Biacore 8k), antibody captured on anti-human Fc, hFcεR1α.MMH injected, 25°C
Method: as §2, §3

mfFcεR1α.MMH [12] = target: T3, mfFcεR1α.MMH; assay: SPR (Biacore 8k), antibody captured on anti-human Fc, mfFcεR1α.MMH injected, 37°C
Method: as §2, §3

Binder	EC80, cleaved caspase 3+ cleaved PARP+ HEK293/hFcεR1α/hFcεR1β/hFcεR1γ target cells with activated CD8+ T cells [1]	Maximum percent apoptotic cells, HEK293/hFcεR1α/hFcεR1β/hFcεR1γ target cells with activated CD8+ T cells [1]	Binding Ratio (MFI of Treated/MFI of Unstained) [2]	EC50 [M], NFAT-luciferase in Jurkat/NFAT-luc with HEK293/hFcεR1α/hFcεR1β/hFcεR1γ cells, 10 nM IgE [3]	EC50 [M], NFAT-luciferase in Jurkat/NFAT-luc with HEK293/hFcεR1α/hFcεR1β/hFcεR1γ cells, No IgE [3]	Fold Activation, Jurkat/NFAT-luc with HEK293/hFcεR1α/hFcεR1β/hFcεR1γ cells, 10 nM IgE [3]	Fold Activation, Jurkat/NFAT-luc with HEK293/hFcεR1α/hFcεR1β/hFcεR1γ cells, No IgE [3]	600 nM hFcεR1α.MMH Bound (RU) (hFcεR1α.MMH [4])	Kd (hFcεR1α.MMH [4])	koff (hFcεR1α.MMH [4])	kon (hFcεR1α.MMH [4])	t½ (hFcεR1α.MMH [4])	Binding Ratio (MFI of Treated/MFI of Unstained) [5]	Binding Ratio (MFI of Treated/MFI of Unstained) [6]	Binding Ratio (MFI of Treated/MFI of Unstained) [7]	Binding Ratio (MFI of Treated/MFI of Unstained) [8]	600 nM mfFceR1a.MMH Bound (RU) (mfFcεR1α.MMH [9])	Kd (mfFcεR1α.MMH [9])	koff (mfFcεR1α.MMH [9])	kon (mfFcεR1α.MMH [9])	further results
B1	34.6 pM	56%	48	1.5e-09 M	3.4e-10 M	32 fold	32 fold	43 RU	801 nM	0.0588 s⁻¹	73500 M⁻¹ s⁻¹	0.2 min	166	269	236	277	40 RU	363 nM	0.0144 s⁻¹	39600 M⁻¹ s⁻¹	t½ (mfFcεR1α.MMH [9]): 0.8 min; EC50, decrease of primary human basophils within PBMC with activated CD8+ T cells [10]: 3.75 nM; Maximum percent basophil decrease, PBMC with activated CD8+ T cells [10]: 90.6%; 600 nM hFcεR1α.MMH Bound (RU) (hFcεR1α.MMH [11]): 72 RU; Kd (hFcεR1α.MMH [11]): 152 nM; koff (hFcεR1α.MMH [11]): 0.0104 s⁻¹; kon (hFcεR1α.MMH [11]): 68200 M⁻¹ s⁻¹; t½ (hFcεR1α.MMH [11]): 1.1 min; 600 nM mfFceR1a.MMH Bound (RU) (mfFcεR1α.MMH [12]): 20 RU; Kd (mfFcεR1α.MMH [12]): 1030 nM; koff (mfFcεR1α.MMH [12]): 0.0399 s⁻¹; kon (mfFcεR1α.MMH [12]): 38600 M⁻¹ s⁻¹; t½ (mfFcεR1α.MMH [12]): 0.29 min
B2	126 pM	56.5%	48	4.9e-09 M	6.8e-10 M	25 fold	23 fold	19 RU	1550 nM	0.0991 s⁻¹	63900 M⁻¹ s⁻¹	0.12 min	142	248	169	201	26 RU	467 nM	0.0195 s⁻¹	41700 M⁻¹ s⁻¹	t½ (mfFcεR1α.MMH [9]): 0.6 min; EC50, decrease of primary human basophils within PBMC with activated CD8+ T cells [10]: 20 nM; Maximum percent basophil decrease, PBMC with activated CD8+ T cells [10]: 80.1%; 600 nM hFcεR1α.MMH Bound (RU) (hFcεR1α.MMH [11]): 46 RU; Kd (hFcεR1α.MMH [11]): 303 nM; koff (hFcεR1α.MMH [11]): 0.02 s⁻¹; kon (hFcεR1α.MMH [11]): 65900 M⁻¹ s⁻¹; t½ (hFcεR1α.MMH [11]): 0.6 min; 600 nM mfFceR1a.MMH Bound (RU) (mfFcεR1α.MMH [12]): 10 RU; Kd (mfFcεR1α.MMH [12]): 3350 nM; koff (mfFcεR1α.MMH [12]): 0.0445 s⁻¹; kon (mfFcεR1α.MMH [12]): 13300 M⁻¹ s⁻¹; t½ (mfFcεR1α.MMH [12]): 0.26 min
